Results published in patent publication US20250296958A1, “GL[…] E[…]” (THE ADMINISTRATORS OF THE TULANE EDUCATIONAL FUND, priority 2022, published 2025).
Bridges are numbered along the chain shown (N, C = ends). Where no end group is shown, it is not given here. [ ]: non-standard residue; d: D form. Glc = glycosylated with D-glucose; Lact = not defined here

How the values were obtained:
mu opioid receptor [1] = molecular target: mu opioid receptor (UniProt P35372); experiment: PDSP receptor binding; against the glycosylated Trp analogs
kappa opioid receptor [2] = molecular target: kappa opioid receptor (UniProt P41145); experiment: PDSP receptor binding, selectivity against MOR; from the 10,000 nM ceiling
delta opioid receptor [3] = molecular target: delta opioid receptor (UniProt P41143); experiment: as above
mu opioid receptor [4] = molecular target: mu opioid receptor (UniProt P35372); experiment: PDSP receptor binding; log of Ki in M
mu opioid receptor [5] = molecular target: mu opioid receptor (UniProt P35372); experiment: PDSP receptor binding
kappa opioid receptor [6] = molecular target: kappa opioid receptor (UniProt P41145); experiment: PDSP receptor binding; binding eliminated by the text
delta opioid receptor [7] = molecular target: delta opioid receptor (UniProt P41143); experiment: as above
[8] = molecular target: kappa opioid receptor, P41145; experiment: PDSP receptor binding; log of Ki in M

Binder	further fold reduction of MOR binding by D-Nal at position 3 (mu opioid receptor [1]) [fold]	kap/mu (ratio of Ki at KOR to Ki at MOR) (kappa opioid receptor [2])	del/mu (ratio of Ki at DOR to Ki at MOR) (delta opioid receptor [3])	Log Ki (mu opioid receptor [4])	Ki (mu opioid receptor [5]) [µM]	Ki (kappa opioid receptor [6]) [µM]	Ki (delta opioid receptor [7]) [µM]	Log Ki [8]
YK[dNal]FES(Glc)-NH2 (not fully specified) [Analog A4 (D-Nal at position 3, C-terminus Ser(Glc)CONH2)]	11	> 157	> 157	-7.2	0.0635	> 10	> 10	
YK[dNal]FES(Lact)-NH2 (not fully specified; reading uncertain) [Analog A5 (D-Nal at position 3, C-terminus Ser(Lact)CONH2)]	11	> 181	> 181	-7.26	0.0553	> 10	> 10	
Y[dK]WFES-NH2 (lactam 2-5) [Analog A8: Tyr-c[D-Lys-Trp-Phe-Glu]-Ser-NH2]								-5.98
